Source: US20250043302A1, “MUTATED HYDROXYPHENYLPYRUVATE DIOXYGENASE POLYPEPTIDE, AND CODING GENE AND USE THEREOF” (BEIJING DABEINONG BIOTECHNOLOGY CO., LTD., priority 2021, published 2025)

What was measured:
Assay type in all cases: in vivo
[1] = system: Arabidopsis thaliana T1 plants; assay: Isoxaflutole tolerance of transgenic Arabidopsis thaliana T1 plants (spray, bleached leaf area grade, damage score); settings: for Classification and statistics of the grade of pesticide damage Grade 0 / Classification and statistics of the grade of pesticide damage Grade 1 / Classification and statistics of the grade of pesticide damage Grade 2 / Classification and statistics of the grade of pesticide damage Grade 3: number of plants in grade; for Classification and statistics of the grade of pesticide damage: Grade 0 / Classification and statistics of the grade of pesticide damage: Grade 1 / Classification and statistics of the grade of pesticide damage: Grade 2 / Classification and statistics of the grade of pesticide damage: Grade 3: number of plants;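 on Scores: Weighted damage index from 0 to 100 where higher means more damage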
Outline: (§1)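 T1 transformants selected by glufosinate; 18-day-old plants, with empty-vector and wild-type controls, sprayed with topramezone (25–200 g ai/ha), isoxaflutole (35–280 g ai/ha) or mesotrione (52.5–420 g ai/ha), water as 0×. Bleached leaf area fraction scored at 7 DAT as grades 0–3.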

[2] = system: Arabidopsis thaliana T1 plants; assay: Mesotrione tolerance of transgenic Arabidopsis thaliana T1 plants (spray, bleached leaf area grade, damage score); parameters: Scores: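 damage score 0-100 computed as Σ(N×S)/(T×M)×100 over grades 0-3 with higher meaning more damage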; settings: for Classification and statistics of the grade of pesticide damage Grade 0 / Classification and statistics of the grade of pesticide damage Grade 1 / Classification and statistics of the grade of pesticide damage Grade 2 / Classification and statistics of the grade of pesticide damage Grade 3: number of plants in grade; for Classification and statistics of the grade of pesticide damage: Grade 0 / Classification and statistics of the grade of pesticide damage: Grade 1 / Classification and statistics of the grade of pesticide damage: Grade 2 / Classification and statistics of the grade of pesticide damage: Grade 3: number of plants
Outline: as §1

[3] = system: Arabidopsis thaliana T1 plants; assay: Topramezone tolerance of transgenic Arabidopsis thaliana T1 plants (spray, bleached leaf area grade, damage score); settings: for Classification and statistics of the grade of pesticide damage: Grade 0 / Classification and statistics of the grade of pesticide damage: Grade 1 / Classification and statistics of the grade of pesticide damage: Grade 2 / Classification and statistics of the grade of pesticide damage: Grade 3: number of plants; for Classification and statistics of the grade of pesticide damage: Grade 0 / Classification and statistics of the grade of pesticide damage: Grade 1 / Classification and statistics of the grade of pesticide damage: Grade 2 / Classification and statistics of the grade of pesticide damage: Grade 3 / Scores / Resistance evaluation: 7 DAT, Table 1; for Scores: pesticide damage score 0-100
From the text: T1 transformants were initially selected from the untransformed seeds using a glufosinate selection scheme. The Arabidopsis thaliana T1 plants (AsHPPD-02) into which the AsHPPD-02 nucleotide sequence was introduced, the Arabidopsis thaliana T1 plants (AsHPPDm-F372A-02) into which the AsHPPDm-F372A-02 nucleotide sequence was introduced, the Arabidopsis thaliana T1 plants (AsHPPDm-F383W-02) into which the AsHPPDm-F383W-02 nucleotide sequence was introduced, the Arabidopsis thaliana T1 plants (AsHPPDm-F372A-F383W-02) into which the AsHPPDm-F372A-F383W-02 nucleotide sequence was introduced, the Arabidopsis thaliana T1 plants (DBN11726N) into which the control recombinant expression vector DBN11726N was introduced, and the wild-type Arabidopsis thaliana plants (CK) (18 days after sowing) were sprayed respectively with topramezone at three concentrations (100 g ai/ha (four-fold field concentration, 4×), 200 g ai/ha (eight-fold field concentration, 8×), and 0 g ai/ha (water, 0×)), isoxaflutole at three concentrations (140 g ai/ha (two-fold field concentration, 2×), 280 g ai/ha (four-fold field concentration, 4×), and 0 g ai/ha (water, 0×)), and mesotrione at three concentrations (210 g ai/ha (two-fold field concentration, […]), 420 g ai/ha (four-fold field concentration, 4×), and 0 g ai/ha (water, 0×)), to determine the tolerance of Arabidopsis thaliana to the herbicides. The degree of damage caused by the herbicide was measured for each plant according to the proportion of bleached leaf area (the proportion of bleached leaf area=bleached leaf area/total leaf area×100%) 7 days after spraying (7 DAT): the case where there is basically no bleached phenotype is defined as grade 0, the case where the proportion of bleached leaf area is less than 50% is defined as grade 1, the case where the proportion of bleached leaf area is more than 50% is defined as grade 2, and the case where the proportion of bleached leaf area is 100% grade is defined as grade 3.
According to the method as described above in point 6 of Example 1, the aforementioned Arabidopsis thaliana T1 plants and wild-type Arabidopsis thaliana plants (CK) (18 days after sowing) were sprayed respectively with topramezone at three concentrations (25 g ai/ha (one-fold field concentration, 1×). 100 g ai/ha (four-fold field concentration, 4×), and 0 g ai/ha (water, 0×)), isoxaflutole at three concentrations (35 g ai/ha (half-fold field concentration, 0.5×). 70 g ai/ha (one-fold field concentration, 1×), and 0 g ai/ha (water, 0×)), and mesotrione at three concentrations (52.5 g ai/ha (half-fold field concentration, 0.5×), 105 g ai/ha (one-fold field concentration, 1×), and 0 g ai/ha (water, 0×)) to detect the tolerance of Arabidopsis thaliana to the herbicides.
According to the method as described above in point 6 of Example 1, the aforementioned Arabidopsis thaliana T1 plants and wild-type Arabidopsis thaliana plants (CK) (18 days after sowing) were sprayed with topramezone at three different concentrations (i.e., 100 g ai/ha (four-fold field concentration, 4×), 200 g ai/ha (eight-fold field concentration, 8×) and 0 g ai/ha (water, 0×)), isoxaflutole at three different concentrations (i.e., 140 g ai/ha (two-fold field concentration, 2×), 280 g ai/ha (four-fold field concentration, 4×) and 0 g ai/ha (water, 0×)), and mesotrione at three different concentrations (i.e., 210 g ai/ha (two-fold field concentration, 2×), 420 g ai/ha (four-fold field concentration, 4×) and 0 g ai/ha (water, 0×)) respectively to detect the herbicide tolerance of Arabidopsis thaliana. […]

[4] = isoxaflutole 140 g ai/ha (2×), 7 DAT, Table 2
[5] = isoxaflutole 280 g ai/ha (4×), 7 DAT, Table 2
[6] = mesotrione 210 g ai/ha (two-fold field concentration), 7 DAT, Table 3
[7] = mesotrione 420 g ai/ha (4×), 7 DAT, Table 3

B1: AsHPPDm-F372A-02: nucleotide sequence encoding Avena sativa HPPD with F372A; vector DBN11728 (nucleic acid)
DNA: ATGCCACCTACTCCAGCTACAGCTACTGGTGCTGCTGCTGCTGCCGTTACTCCTGAGCACGCTGCCAGGTCATTCCCCAGGGTGGTTCGCGTGAACCCCAGATCTGATAGGTTCCCAGTTCTGAGCTTCCACCATGTTGAGCTGTGGTGCGCTGATGCTGCTTCTGCTGCTGGCAGGTTCTCTTTCGCTCTTGGTGCTCCACTCGCTGCTAGATCTGATCTGTCTACAGGAAATAGCGCTCATGCCTCACTCCTGCTTCGCTCAGGTGCTTTGGCCTTCCTCTTCACCGCTCCATATGCTCCCCCACCTCAGGAGGCTGCTACTGCTGCTGCTACAGCCTCCATTCCAAGCTTCTCAGCTGATGCCGCTAGAACCTTCGCTGCTGCTCATGGACTTGCCGTGAGGTCTGTTGGTGTTCGCGTGGCTGATGCTGCTGAGGCTTTCAGAGTTTCCGTTGCCGGCGGAGCTAGGCCAGCTTTCGCTCCTGCTGATTTGGGACATGGTTTCGGCCTGGCTGAGGTTGAGCTTTACGGTGACGTGGTTCTCCGCTTCGTGTCTTACCCAGATGAGACTGACCTGCCTTTCCTTCCCGGCTTCGAGAGAGTTTCCTCTCCTGGTGCCGTGGATTACGGCCTGACAAGGTTCGACCACGTGGTTGGAAACGTTCCCGAGATGGCTCCAGTGATCGATTACATGAAGGGCTTCCTTGGATTCCATGAGTTCGCCGAGTTCACTGCTGAGGACGTGGGAACCACTGAGTCCGGTTTGAACTCTGTGGTTCTCGCCAACAATTCTGAGGCTGTTTTGCTCCCTCTGAATGAGCCTGTGCATGGAACCAAGAGGAGAAGCCAGATTCAAACTTACCTGGAGTACCACGGTGGCCCTGGAGTTCAGCATATCGCCCTTGCTTCTAATGATGTGTTGCGCACACTCAGAGAGATGCGCGCCAGAACCCCCATGGGAGGTTTCGAGTTCATGGCCCCACCACAGGCTAAGTACTACGAGGGCGTTAGAAGGATTGCTGGAGACGTGTTGAGCGAGGAGCAGATCAAGGAGTGCCAAGAGCTGGGTGTTCTTGTGGATAGGGATGACCAGGGCGTTCTGCTTCAAATTGCCACTAAGCCAGTGGGCGACCGCCCTACATTCTTCCTTGAGATGATTCAAAGAATCGGCTGCATGGAGAAGGATGAGGTTGGACAGGAGTACCAAAAGGGCGGATGCGGTGGCTTCGGAAAGGGTAACTTCAGCGAGTTGTTCAAGTCAATCGAGGACTACGAGAAGAGCCTCGAGGTGAAGCAGTCAGTGGTTGCCCAAAAGTCCTGA
modifications: AsHPPDm-F372A-02 Nucleotide Sequence
notes: vector DBN11728
[1]; in vivo
  tolerance to isoxaflutole (in words): different degrees of tolerance
[1]; isoxaflutole 140 g ai/ha
  Resistance evaluation: Moderately
  Scores: 33
  Classification and statistics of the grade of pesticide damage Grade 0: 5
  Classification and statistics of the grade of pesticide damage Grade 1: 6
  Classification and statistics of the grade of pesticide damage Grade 2: 5
  Classification and statistics of the grade of pesticide damage Grade 3: 0
[1]; [4]
  Resistance evaluation: moderately
  Classification and statistics of the grade of pesticide damage: Grade 0: 5
  Classification and statistics of the grade of pesticide damage: Grade 1: 6
  Classification and statistics of the grade of pesticide damage: Grade 2: 5
  Classification and statistics of the grade of pesticide damage: Grade 3: 0
[1]; isoxaflutole 280 g ai/ha
  Resistance evaluation: Poorly
  Scores: 67
  Classification and statistics of the grade of pesticide damage Grade 0: 0
  Classification and statistics of the grade of pesticide damage Grade 1: 0
  Classification and statistics of the grade of pesticide damage Grade 2: 16
  Classification and statistics of the grade of pesticide damage Grade 3: 0
[1]; [5]
  Resistance evaluation: poorly resistant (poorly resistant plants (scores 34-67))
  Classification and statistics of the grade of pesticide damage: Grade 0: 0
  Classification and statistics of the grade of pesticide damage: Grade 1: 0
  Classification and statistics of the grade of pesticide damage: Grade 2: 16
  Classification and statistics of the grade of pesticide damage: Grade 3: 0
[1]; isoxaflutole at four-fold field concentration
  tolerance to isoxaflutole (resistance class): poorly-resistant
[1]; isoxaflutole at two-fold field concentration
  tolerance to isoxaflutole (resistance class): moderately-resistant
[1]; pesticide damage score 0-100, isoxaflutole 140 g ai/ha (2×), 7 DAT, Table 2
  Scores: 33
[1]; pesticide damage score 0-100, isoxaflutole 280 g ai/ha (4×), 7 DAT, Table 2
  Scores: 67
[2]; in vivo
  tolerance to mesotrione (in words): different degrees of tolerance
[2]; mesotrione 210 g ai/ha
  Resistance evaluation: Moderately
  Scores: 31
  Classification and statistics of the grade of pesticide damage Grade 0: 5
  Classification and statistics of the grade of pesticide damage Grade 1: 7
  Classification and statistics of the grade of pesticide damage Grade 2: 4
  Classification and statistics of the grade of pesticide damage Grade 3: 0
[2]; [6]
  Resistance evaluation: moderately
  Classification and statistics of the grade of pesticide damage: Grade 0: 5
  Classification and statistics of the grade of pesticide damage: Grade 1: 7
  Classification and statistics of the grade of pesticide damage: Grade 2: 4
  Classification and statistics of the grade of pesticide damage: Grade 3: 0
[2]; mesotrione 420 g ai/ha
  Resistance evaluation: Poorly resistant
  Scores: 50
  Classification and statistics of the grade of pesticide damage Grade 0: 0
  Classification and statistics of the grade of pesticide damage Grade 1: 8
  Classification and statistics of the grade of pesticide damage Grade 2: 8
  Classification and statistics of the grade of pesticide damage Grade 3: 0
[2]; [7]
  Resistance evaluation: poorly resistant (poorly resistant plants (scores 34-67))
  Classification and statistics of the grade of pesticide damage: Grade 0: 0
  Classification and statistics of the grade of pesticide damage: Grade 1: 8
  Classification and statistics of the grade of pesticide damage: Grade 2: 8
  Classification and statistics of the grade of pesticide damage: Grade 3: 0
[2]; mesotrione at four-fold field concentration
  tolerance to mesotrione (resistance class): poorly-resistant
[2]; mesotrione at two-fold field concentration
  tolerance to mesotrione (resistance class): moderately-resistant
[2]; pesticide damage score 0-100, mesotrione 210 g ai/ha (two-fold field concentration), 7 DAT, Table 3
  Scores: 31
[2]; pesticide damage score 0-100, mesotrione 420 g ai/ha (4×), 7 DAT, Table 3
  Scores: 50
[3]; topramezone 100 g ai/ha (4×)
  Classification and statistics of the grade of pesticide damage: Grade 0: 16
  Classification and statistics of the grade of pesticide damage: Grade 1: 0
  Classification and statistics of the grade of pesticide damage: Grade 2: 0
  Classification and statistics of the grade of pesticide damage: Grade 3: 0
  Scores: 0
  Resistance evaluation: highly resistant (highly resistant plants (scores 0-15))
[3]; topramezone 200 g ai/ha (8×)
  Classification and statistics of the grade of pesticide damage: Grade 0: 16
  Classification and statistics of the grade of pesticide damage: Grade 1: 0
  Classification and statistics of the grade of pesticide damage: Grade 2: 0
  Classification and statistics of the grade of pesticide damage: Grade 3: 0
  Scores: 0
  Resistance evaluation: highly resistant (highly resistant plants (scores 0-15))
[3]; topramezone at four-fold or eight-fold field concentration
  tolerance to topramezone (resistance class): highly-resistant
